In US20210347873A1 (SHANGHAI PHARMAEXPLORER, published 2021):

Legend:
biotinylated hBLyS-ECD [1] = target: T1, biotinylated hBLyS-ECD (human, UniProt Q9Y275 134-285, biotinylated with Biotin-X-X-NHS (molar ratio 7:1); sites not stated); experiment: blocking ELISA: biotinylated hBLyS-ECD on coated BAFF R, antibody 4 nM
T1 construct: also called biotinylated immunogen; BLyS protein
Description: (§1) BAFF R (purchased from R & D Systems) was aliquoted into 96-well ELISA plate at 50 ng per well, and the plate was sealed with plastic film and incubated overnight at 4° C. On the next day the plate was washed four times with the plate washing buffer [PBS buffer containing 0.05% (v/v) Tween20] and added with blocking solution [PBS buffer containing 0.05% (v/v) Tween20 and 1% (w/w) BSA], then blocked for 1 hour at room temperature. The blocking solution was removed and 50 μL per well of the lead antibodies prepared in Embodiment 1 and 2 were added followed by the addition of 50 μL per well of the biotinylated hBLyS-ECD prepared in Embodiment 2. After incubation for 1 hour at 37° C., the plate was washed four times with the plate washing buffer [PBS buffer containing 0.05% (v/v) Tween20]. 100 μL per well of HRP-labeled (horseradish peroxidase) avidin (purchased from Sigma) was added and incubated at 37° C. for 1 hour. The plate was then washed four times with the plate washing buffer [PBS buffer containing 0.05% (v/v) Tween20]. 100 μL of TMB substrate was aliquoted into each well and after incubation for 5 minutes at room temperature, then 100 μL of stop solution (1.0 N HCl) was aliquoted into each well. A₄₅₀ₙₘ values were read with an ELISA plate reader (SpectraMax 384plus, Molecular Device) and the results were shown in FIGS. 9A-9B and Table 15. It was shown in Table 15 that the binding of BLyS protein to its receptor BAFF R could be blocked by the BLyS antibody.

biotinylated hBLyS-ECD [2] = target: T1, biotinylated hBLyS-ECD; experiment: blocking ELISA: biotinylated hBLyS-ECD on coated BAFF R, antibody 20 nM
Description: as §1

biotinylated hBLyS-ECD [3] = target: T1, biotinylated hBLyS-ECD; experiment: blocking ELISA: biotinylated hBLyS-ECD on coated BAFF R, antibody 0.16 nM
Description: as §1

biotinylated hBLyS-ECD [4] = target: T1, biotinylated hBLyS-ECD; experiment: blocking ELISA: biotinylated hBLyS-ECD on coated BAFF R, antibody 0.032 nM
Description: as §1

biotinylated hBLyS-ECD [5] = target: T1, biotinylated hBLyS-ECD; experiment: blocking ELISA: biotinylated hBLyS-ECD on coated BAFF R, antibody 0.0064 nM
Description: (§2) BLyS antibody blocking the binding of the BLyS protein to its receptor BAFF R was detected by the receptor-ligand binding assay of BLyS protein.
as §1

biotinylated hBLyS-ECD [6] = target: T1, biotinylated hBLyS-ECD; experiment: blocking ELISA: biotinylated hBLyS-ECD on coated BAFF R, antibody 0.00128 nM
Description: as §2, §1

biotinylated hBLyS-ECD [7] = target: T2, biotinylated hBLyS-ECD (human, UniProt Q9Y275 134-285, biotinylated with Biotin-X-X-NHS (molar ratio 7:1), sites not stated); experiment: ELISA, biotinylated hBLyS-ECD captured on streptavidin; antibody 2.67 nM
T2 construct: The hBLyS-ECD of Embodiment 1 after biotinylation (Embodiment 2); also called biotinylated immunogen; BLyS protein; not shown: His tag of the pCPC vector
Description: (§3) Streptavidin was first diluted to a final concentration of 1.0 μg/mL with PBS, and then 50 μL of diluted streptavidin per well was aliquoted into 96-well ELISA plate, which was subsequently sealed with plastic film and incubated at 4° C. overnight. On the next day the plate was washed four times with the plate washing buffer [PBS buffer containing 0.05% (v/v) Tween20] and added with the blocking solution [PBS buffer containing 0.05% (v/v) Tween20 and 1% (w/w) BSA] and blocked for 2 hours at 37° C. The blocking solution was removed, the biotinylated hBLyS-ECD prepared in Embodiment 2 was diluted with PBS to a final concentration of 50 ng/mL and then aliquoted into the 96-well ELISA plate at 50 μL per well and incubated for 1 hour at 37° C. After rinsing the plate four times with the plate washing buffer [PBS buffer containing 0.05% (v/v) Tween20], 100 μl of the purified lead antibody harvested in Embodiment 1 and 2 was pipetted into each well. After incubation for 1 hour at 37° C., the plate was rinsed four times with the plate washing buffer [PBS buffer containing 0.05% (v/v) Tween20]. HRP-labeled (horseradish peroxidase) secondary antibody (purchased from Sigma) was added in and incubated at 37° C. for 1 hour. The plate was then rinsed four times with the plate washing buffer [PBS buffer containing 0.05% (v/v) Tween20]. 100 μL of TMB substrate was aliquoted into each well and after incubation for 5 minutes at room temperature, 100 μL of stop solution (1.0 N HCl) was aliquoted into each well. A₄₅₀ₙₘ values were read via an ELISA plate reader (SpectraMax M5e purchased from Molecular Devices) and the results were shown in FIGS. 5A-5B and Table 10.

biotinylated hBLyS-ECD [8] = target: T2, biotinylated hBLyS-ECD; experiment: ELISA, biotinylated hBLyS-ECD captured on streptavidin; antibody 0.107 nM
Description: as §3

biotinylated hBLyS-ECD [9] = target: T2, biotinylated hBLyS-ECD; experiment: ELISA, biotinylated hBLyS-ECD captured on streptavidin; antibody 0.00427 nM
Description: as §3

biotinylated hBLyS-ECD [10] = target: T2, biotinylated hBLyS-ECD; experiment: ELISA, biotinylated hBLyS-ECD captured on streptavidin; antibody 0 nM (blank)
Description: as §3

biotinylated hBLyS-ECD [11] = target: T2, biotinylated hBLyS-ECD; experiment: receptor-ligand blocking ELISA: BAFF R coated, biotinylated hBLyS-ECD added with titrated antibody, HRP-avidin; blocked partner: BAFF R
Description: as §1

T1 sequence (Q9Y275 134-285): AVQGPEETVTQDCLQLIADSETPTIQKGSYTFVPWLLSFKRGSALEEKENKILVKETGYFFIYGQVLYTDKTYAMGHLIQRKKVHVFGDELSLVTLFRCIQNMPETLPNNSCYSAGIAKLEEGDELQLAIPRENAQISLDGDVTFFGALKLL
T2 sequence (Q9Y275 134-285): as above

| Binder | OD450 nm (biotinylated hBLyS-ECD [1]) [OD450 nm] | OD450 nm (biotinylated hBLyS-ECD [2]) [OD450 nm] | OD450 nm (biotinylated hBLyS-ECD [3]) [OD450 nm] | OD450 nm (biotinylated hBLyS-ECD [4]) [OD450 nm] | OD450 nm (biotinylated hBLyS-ECD [5]) [OD450 nm] | OD450 nm (biotinylated hBLyS-ECD [6]) [OD450 nm] | OD450 nm (biotinylated hBLyS-ECD [7]) | OD450 nm (biotinylated hBLyS-ECD [8]) | OD450 nm (biotinylated hBLyS-ECD [9]) | OD450 nm (biotinylated hBLyS-ECD [10]) | IC50 (read off the curve) (biotinylated hBLyS-ECD [11]) [nM] |
| --- | --- | --- | --- | --- | --- | --- | --- | --- | --- | --- | --- |
| 8E7D9C7F5 (antibody, V domains shown, Mouse hybridoma monoclonal antibody purified on Protein G) VH: QVQLQQSGVELARPGASVKLSCKASGYTFTSYGISWVKQRTGQALEWIGEIYPRSGNTYYNEKFKGKATLTADKSSSTAYMELRSLTSEDSAVYFCARSGPITTLVATDYGMDYWGQGTSVTVSS VL: DIVLTQSPASLAVSLGQRATISCRASKSVSTSSYSYMHWYQQKPGQPPKLLIKFASNLESGVPARFSGSGSGTDFTLNIHPVEEEDAATYYCQHSREFPYTFGGGTKLEIK | 0.173 | 0.133 | 0.61 | 1.05 | 1.38 | 1.62 | – | – | – | – | – |
| 111D10D6G3 (antibody, V domains shown, Mouse hybridoma monoclonal antibody purified on Protein G) VH: QVQLQQPGAELVKPGASVKMSCKASGYTFTRHWITWVKQRPGQGLEWIGDIFPGSGSINYNEKFKSEATLTVEKSSSTAYMQLSSLTSEDSAVYYCARGDVDVWGTGTTVTVSS VL: DIQMTQSPSSLSASLGERVSLTCRASQEIRGYLSWLQQKPNGTIKRLIYAASTLDSGVPKRFSATRSGSDFSLTISSLESEDFADYYCLQYASYPFTFGSGTKLEIK | 0.67 | 0.616 | 0.911 | 1.14 | 1.29 | 1.27 | – | – | – | – | – |
| 97A3C2H4 (antibody, V domains shown, Mouse hybridoma monoclonal antibody purified on Protein G) VH: EVKLVESGGGLVQPGGSLKLSCAASGFTFSTYTMSWVRQTPEKRLEWVAYISYGGGSTSYPDTVKGRFTISRDNAKNTLYLQMSSLKSEDTAIYYCTRHVTVVENSMDYWGQGTSVTVSS VL: DILLTQSPDILSVSPGERVSFSCRASQSIGTSIHWYQQRTNGSPRLLIKYVSESFSGTPSRFSGSGSGTAFTLTINSVESEDIADYYCQQTHSWPWTFGGGTKLEIK | 0.208 | 0.125 | 0.816 | 1.12 | 1.21 | 1.34 | – | – | – | – | – |
| 97A3C2H4 (antibody, V domains shown, Mouse hybridoma antibody purified on Protein G) VH: EVKLVESGGGLVQPGGSLKLSCAASGFTFSTYTMSWVRQTPEKRLEWVAYISYGGGSTSYPDTVKGRFTISRDNAKNTLYLQMSSLKSEDTAIYYCTRHVTVVENSMDYWGQGTSVTVSS VL: DILLTQSPDILSVSPGERVSFSCRASQSIGTSIHWYQQRTNGSPRLLIKYVSESFSGTPSRFSGSGSGTAFTLTINSVESEDIADYYCQQTHSWPWTFGGGTKLEIK | – | – | – | – | – | – | 2.75 | 0.899 | 0.105 | 0.0603 | ~0.3 |
| 111D10D6G3 (antibody, V domains shown, Mouse hybridoma antibody purified on Protein G) VH: QVQLQQPGAELVKPGASVKMSCKASGYTFTRHWITWVKQRPGQGLEWIGDIFPGSGSINYNEKFKSEATLTVEKSSSTAYMQLSSLTSEDSAVYYCARGDVDVWGTGTTVTVSS VL: DIQMTQSPSSLSASLGERVSLTCRASQEIRGYLSWLQQKPNGTIKRLIYAASTLDSGVPKRFSATRSGSDFSLTISSLESEDFADYYCLQYASYPFTFGSGTKLEIK | – | – | – | – | – | – | 1.78 | 0.613 | 0.082 | 0.0617 | ~0.1 |
| L9G7 (antibody, human IgG1, V domains shown) VH: QIQLVQSGAEVKKPGASVKVSCKASGYTFTSYGISWVRQAPGQGLEWMGWISAYNGNTNYAQKLQGRVTMTTDTSTSTAYMELRSLRSDDTAVYYCARTYYDILTGYYYYGMDVWGQGTTVTVSS VL: EIVLTQSPGTLSLSPGERATLSCRTSQSVDTYLAWYQQKPGQAPRLLIYDASNRATGIPARFSGSGSGTDFTLTISSLEPEDFAVYYCQQRSNWPLTFGGGTKVEIK | – | – | – | – | – | – | 1.71 | 0.528 | 0.0853 | 0.071 | ~0.7 |
| L1D12 (antibody, human IgG1, V domains shown, also called LID12) VH: QVQLVQSGGGLVQPGGSLRLSCAASGFTVSSNYMSWVRQAPGKGLEWVSVIYSGGSTYYADSVKGRFTISRDNSKNTLYLQMNSLRAEDTAVYYCARGFHDILTGYGMDVWGQGTTVTVSS VL: SSELTQDPAVSVALGQTVRITCQGDSLRNYYAGWYQQKPGQAPVLVIYGKNNRPSGIPDRFSGSSSGNTASLTITGTQAEDEADYYCSSRDNSGTHLVEFGGGTKLTVL | – | – | – | – | – | – | 1.65 | 0.678 | 0.135 | 0.11 | ~1 |
